Source: article PMC6392133, “Structure and Catalytic Mechanism of a Bacterial Friedel–Crafts Acylase” (Chembiochem, 2018)
Blank lines part the entries; values can stand above or below the compound they belong to.

How the values were obtained:
[1] = target: T1, PpATase (multicomponent acyltransferase, PhlA/PhlB/PhlC) (Pseudomonas protegens, UniProt Q4K420); assay: X-ray crystal structure ([…] Å) of crystal soaked with MAPG; format: binding; settings: PG bound at PhlC active site (4 of 8 PhlC copies) next to acetylated Cys88; formed in the crystal from soaked MAPG
T1 construct: codon-optimized phlA, phlB, phlC ORFs co-expressed in E. coli; size-exclusion purified for crystals, cell-free extract for activity; heterododecamer Phl(A2C2)2B4; with 2,4-diacetylphloroglucinol biosynthesis protein PhlA; 2,4-diacetylphloroglucinol biosynthesis protein PhlB

[2] = target: PhlA subunit of the acyltransferase from Pseudomonas protegens DSM 19095 (PpATase) (Pseudomonas protegens DSM 19095); assay: crystal structure; PpATase complex (PhlA, PhlB, PhlC co-expressed, purified by SEC); hexagonal crystal form (P6_(1)22, untreated, 2.8 Å) and orthorhombic crystal form (P2_(1)2_(1)2_(1), soaked with MAPG, 3.4 Å); crystallised at 289 K; protein-protein interactions in the crystal analysed with the EBI-Pisa server
[3] = target: PhlC subunit of the acyltransferase from Pseudomonas protegens DSM 19095 (PpATase) (Pseudomonas protegens DSM 19095); assay: as above

Compound: Oc1cc(O)cc(O)c1 [PG, benzene‐1,3,5‐triol]
- X-ray crystal structure (3.4 Å) of crystal soaked with MAPG [1]: This density was compatible with an acetylated Cys88 residue and with a (deacetylated) PG molecule

- stoichiometry N [2]: 2
Compound: PhlA subunit of the acyltransferase from Pseudomonas protegens DSM 19095 (PpATase) (natural protein)

- stoichiometry N [3]: 2
Compound: PhlC subunit of the acyltransferase from Pseudomonas protegens DSM 19095 (PpATase) (natural protein)
